Assay results published in US20200062842A1.

Experiments:
[1] = biological target: human MUC1 on the surface of MUC1 expressing tumor cells (human) (UniProt P15941); assay: flow cytometry, FITC-conjugated antibody, U266 cells; negative control
[2] = biological target: human MUC1 on the surface of MUC1 expressing tumor cells (human) (UniProt P15941); assay: flow cytometry, FITC-conjugated antibody, Ramos cells; negative control
[3] = biological target: human MUC1 on the surface of MUC1 expressing tumor cells (human) (UniProt P15941); assay: flow cytometry, FITC-conjugated antibody, MDA-453 cells; negative control
[4] = biological target: human MUC1 on the surface of MUC1 expressing tumor cells (human) (UniProt P15941); assay: flow cytometry, FITC-conjugated antibody, MDA-231 cells; negative control
[5] = biological target: human MUC1 on the surface of MUC1 expressing tumor cells (human) (UniProt P15941); assay: flow cytometry, FITC-conjugated antibody, MCF7 cells; negative control
[6] = biological target: human MUC1 on the surface of MUC1 expressing tumor cells (human) (UniProt P15941); assay: flow cytometry, FITC-conjugated antibody, ARH-77 cells; negative control
[7] = biological target: human MUC1 on the surface of MUC1 expressing tumor cells (human) (UniProt P15941); assay: flow cytometry, FITC-conjugated antibody, OVCAR-3 cells; negative control
[8] = biological target: human MUC1 on the surface of MUC1 expressing tumor cells (human) (UniProt P15941); assay: flow cytometry, FITC-conjugated antibody, Raji cells; negative control
[9] = biological target: human MUC1 on the surface of MUC1 expressing tumor cells (human) (UniProt P15941); assay: flow cytometry, FITC-conjugated antibody, RPMI8226 cells; negative control
[10] = biological target: human MUC1 on the surface of MUC1 expressing tumor cells (human) (UniProt P15941); assay: FACS, bone marrow aspirate of MM patient P #3
[11] = biological target: human MUC1 on the surface of MUC1 expressing tumor cells (human) (UniProt P15941); assay: flow cytometry, FITC-conjugated antibody, MDA-453 cells; cell looks truncated
[12] = biological target: human MUC1 on the surface of MUC1 expressing tumor cells (human) (UniProt P15941); assay: flow cytometry, FITC-conjugated antibody, OVCAR-3 cells; cell looks truncated
[13] = biological target: human MUC1 on the surface of MUC1 expressing tumor cells (human) (UniProt P15941); assay: FACS, bone marrow aspirate of MM patient P #I
[14] = biological target: human MUC1 on the surface of MUC1 expressing tumor cells (human) (UniProt P15941); assay: flow cytometry, FITC-conjugated antibody, RPMI8226 cells; cell looks truncated
[15] = biological target: human MUC1 on the surface of MUC1 expressing tumor cells (human) (UniProt P15941); assay: flow cytometry, FITC-conjugated antibody, MCF7 cells; cell looks truncated
[16] = biological target: human MUC1 on the surface of MUC1 expressing tumor cells (human) (UniProt P15941); assay: flow cytometry, FITC-conjugated antibody, MDA-231 cells; cell looks truncated
[17] = biological target: human MUC1 on the surface of MUC1 expressing tumor cells (human) (UniProt P15941); assay: flow cytometry, FITC-conjugated antibody, U266 cells; cell looks truncated
[18] = biological target: human MUC1 on the surface of MUC1 expressing tumor cells (human) (UniProt P15941); assay: FACS, bone marrow aspirate of MM patient P #II
[19] = biological target: human MUC1 on the surface of MUC1 expressing tumor cells (human) (UniProt P15941); assay: flow cytometry, FITC-conjugated antibody, ARH-77 cells; cell looks truncated
[20] = biological target: human MUC1 on the surface of MUC1 expressing tumor cells (human) (UniProt P15941); assay: flow cytometry, FITC-conjugated antibody, Raji cells; cell looks truncated

Sequence of UniProt P15941 (P15941 24-1255): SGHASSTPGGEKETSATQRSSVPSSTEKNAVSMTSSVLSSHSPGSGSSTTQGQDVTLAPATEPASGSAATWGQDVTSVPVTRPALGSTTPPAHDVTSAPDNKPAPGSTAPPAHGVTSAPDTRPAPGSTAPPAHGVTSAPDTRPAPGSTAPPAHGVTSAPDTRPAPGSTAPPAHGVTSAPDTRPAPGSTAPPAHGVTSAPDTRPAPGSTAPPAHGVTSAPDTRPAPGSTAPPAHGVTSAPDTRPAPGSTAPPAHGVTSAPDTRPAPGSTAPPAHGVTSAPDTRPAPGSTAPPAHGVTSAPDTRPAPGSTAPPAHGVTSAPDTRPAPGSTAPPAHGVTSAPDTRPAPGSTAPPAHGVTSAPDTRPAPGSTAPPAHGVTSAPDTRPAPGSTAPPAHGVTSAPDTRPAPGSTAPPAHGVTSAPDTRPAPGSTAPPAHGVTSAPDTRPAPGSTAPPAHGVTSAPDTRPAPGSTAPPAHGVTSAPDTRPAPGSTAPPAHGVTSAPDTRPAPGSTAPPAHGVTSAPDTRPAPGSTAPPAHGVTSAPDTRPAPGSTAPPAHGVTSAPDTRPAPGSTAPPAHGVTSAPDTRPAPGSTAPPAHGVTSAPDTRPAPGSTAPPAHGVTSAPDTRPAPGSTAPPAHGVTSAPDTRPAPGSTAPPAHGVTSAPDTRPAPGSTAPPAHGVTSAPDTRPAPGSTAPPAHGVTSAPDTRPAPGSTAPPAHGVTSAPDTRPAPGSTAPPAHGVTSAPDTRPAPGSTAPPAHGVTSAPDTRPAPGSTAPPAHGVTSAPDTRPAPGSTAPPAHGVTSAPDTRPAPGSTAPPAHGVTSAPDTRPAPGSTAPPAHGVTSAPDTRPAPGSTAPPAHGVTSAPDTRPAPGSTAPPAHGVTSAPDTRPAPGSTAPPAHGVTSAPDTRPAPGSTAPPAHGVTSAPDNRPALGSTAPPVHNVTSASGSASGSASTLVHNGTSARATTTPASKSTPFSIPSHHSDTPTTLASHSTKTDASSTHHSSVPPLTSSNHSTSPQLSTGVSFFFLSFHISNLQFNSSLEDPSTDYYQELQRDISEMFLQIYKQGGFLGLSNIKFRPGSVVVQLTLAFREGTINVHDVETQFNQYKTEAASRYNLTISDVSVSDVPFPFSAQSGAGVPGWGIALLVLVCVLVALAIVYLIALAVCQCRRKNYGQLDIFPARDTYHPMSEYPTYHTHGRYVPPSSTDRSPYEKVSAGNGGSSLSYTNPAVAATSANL

Substance | geometric mean (FACS) [1] | geometric mean (FACS) [2] | geometric mean (FACS) [3] | geometric mean (FACS) [4] | geometric mean (FACS) [5] | geometric mean (FACS) [6] | geometric mean (FACS) [7] | geometric mean (FACS) [8] | geometric mean (FACS) [9] | % of cells immunoreactive [10] [%] | geometric mean (FACS) [11] | geometric mean (FACS) [12] | % of CD138 positive cells immunoreactive [13] [%] | geometric mean (FACS) [14] | geometric mean (FACS) [15] | geometric mean (FACS) [16] | geometric mean (FACS) [17] | % of CD138 positive cells immunoreactive [18] [%] | geometric mean (FACS) [19] | geometric mean (FACS) [20]
Mouse control (species-specific isotype control, FITC conjugated) (antibody) | 485 | 198 | 182 | 245 | 230 | 176 | 370 | 131 | 745 |  |  |  |  |  |  |  |  |  |  | 
H23 anti-MUC1 TRA monoclonal antibody |  |  |  |  |  |  |  |  |  | 0.37 | 80 | 456 | 78.3 | 585 | 4 | 66 | 39 | 59.2 | 68 | 3
Rabbit control (species-specific isotype control, FITC conjugated) (antibody) | 471 | 111 | 165 | 215 | 236 | 161 | 418 | 128 | 738 |  |  |  |  |  |  |  |  |  |  | 
